Measurements published in US10307466B2, “Composition comprising sophorolipid, physiologically active substance and oil or fat, and method for producing the same” (SARAYA CO., LTD., priority 2014, dated 2019).

Tested on: ICR mice
Test: Tail-flick test with 48° C. heat stimulation (enhancement of the analgesic effect of morphine)
Assay type: in vivo
Set-up: key: −: no analgesic effect was observed; ±: an analgesic effect comparable to the treatment control was observed; +: an analgesic effect comparable to the positive control was observed; ++: a higher analgesic effect than the positive control was observed; +++: a higher analgesic effect than “++” was observed
Protocol: For the evaluation of an analgesic effect, the tail-flick test was performed with 48° C. heat stimulation. In the tail-flick test, the tail of mice is exposed to heat stimulation, and latency for the animal to flick the tail is measured. The response latency is known to be delayed after administration of an analgesic drug such as morphine. The test is used for the evaluation of an analgesic effect.
ICR mice at 5 weeks old were subjected to daily simultaneous administration of an intraperitoneal dose of morphine (3 mg/kg) (morphine hydrochloride (trade name), Daiichi Sankyo) and an oral dose of one of the compositions of Examples 1 to 3 (300 mg/kg bLF) and Comparative Example 1 (300 mg/kg) for 5 days. At 30 and 90 minutes after the administration on day 5, the tail-flick test was performed.
As a treatment control, ICR mice at 5 weeks old were subjected to daily simultaneous administration of an intraperitoneal dose of morphine (3 mg/kg) and an oral dose of physiological saline for 5 days. The tail-flick test was then performed in the same manner as above.
As a negative control, daily simultaneous administration of an intraperitoneal dose of physiological saline and an oral dose of physiological saline was performed for 5 days. […]

B1: bovine lactoferrin (protein, UniProt P24627 20-708, looked up)
Lactotransferrin: APRKNVRWCTISQPEWFKCRRWQWRMKKLGAPSITCVRRAFALECIRAIAEKKADAVTLDGGMVFEAGRDPYKLRPVAAEIYGTKESPQTHYYAVAVVKKGSNFQLDQLQGRKSCHTGLGRSAGWIIPMGILRPYLSWTESLEPLQGAVAKFFSASCVPCIDRQAYPNLCQLCKGEGENQCACSSREPYFGYSGAFKCLQDGAGDVAFVKETTVFENLPEKADRDQYELLCLNNSRAPVDAFKECHLAQVPSHAVVARSVDGKEDLIWKLLSKAQEKFGKNKSRSFQLFGSPPGQRDLLFKDSALGFLRIPSKVDSALYLGSRYLTTLKNLRETAEEVKARYTRVVWCAVGPEEQKKCQQWSQQSGQNVTCATASTTDDCIVLVLKGEADALNLDGGYIYTAGKCGLVPVLAENRKSSKHSSLDCVLRPTEGYLAVAVVKKANEGLTWNSLKDKKSCHTAVDRTAGWNIPMGLIVNQTGSCAFDEFFSQSCAPGADPKSRLCALCAGDDQGLDKCVPNSKEKYYGYTGAFRCLAEDVGDVAFVKNDTVWENTNGESTADWAKNLNREDFRLLCLDGTRKPVTEAQSCHLAVAPNHAVVSRSDRAAHVKQVLLHQQALFGKNGKNCPDKFCLFKSETKNLLFNDNTECLAKLGGRPTYEEYLGTEYVTAIANLKKCSTSPLLEACAFLTR
30 minutes after administration on day 5, daily i.p. morphine 3 mg/kg + oral composition (300 mg/kg bLF) for 5 days
  Evaluation at 30 min (analgesic effect, tail-flick test): +
90 minutes after administration on day 5, daily i.p. morphine 3 mg/kg + oral composition (300 mg/kg bLF) for 5 days
  Evaluation at 90 min (analgesic effect, tail-flick test): +
